We go through two molecules from paper PMC6547417.

Like-named read-outs stand apart in the source and are kept apart here.

What is called Kd is the free concentration of one partner at which half of the binding sites on the other are occupied at equilibrium, for simple one-to-one binding. A high value points to lower affinity.

Assay in all cases: EMSA
(A gel shift assay detects complexes by their altered migration in electrophoresis.)

For series [1], the target named is T1, RPA (UniProt P27694;P15927;P35244 1-616;1-270;1-121).
T1 sequence (P27694 whole entry, chain 1 of 3): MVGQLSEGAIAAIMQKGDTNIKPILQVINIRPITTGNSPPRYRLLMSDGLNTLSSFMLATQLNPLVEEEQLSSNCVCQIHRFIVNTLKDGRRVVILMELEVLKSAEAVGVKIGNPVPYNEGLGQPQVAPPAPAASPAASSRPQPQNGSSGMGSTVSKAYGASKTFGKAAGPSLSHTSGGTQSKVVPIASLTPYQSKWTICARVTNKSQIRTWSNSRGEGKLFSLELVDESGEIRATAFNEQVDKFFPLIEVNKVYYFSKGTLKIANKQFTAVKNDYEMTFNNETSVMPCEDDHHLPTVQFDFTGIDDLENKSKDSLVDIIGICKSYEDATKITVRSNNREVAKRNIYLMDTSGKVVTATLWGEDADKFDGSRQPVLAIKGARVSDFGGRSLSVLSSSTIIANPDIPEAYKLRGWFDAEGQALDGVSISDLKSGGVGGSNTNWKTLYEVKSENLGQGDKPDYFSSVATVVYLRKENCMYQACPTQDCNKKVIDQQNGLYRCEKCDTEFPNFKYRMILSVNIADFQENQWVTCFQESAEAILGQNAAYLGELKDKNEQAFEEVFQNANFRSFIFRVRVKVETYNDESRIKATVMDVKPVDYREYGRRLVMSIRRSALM
T1 sequence (P15927 whole entry, chain 2 of 3): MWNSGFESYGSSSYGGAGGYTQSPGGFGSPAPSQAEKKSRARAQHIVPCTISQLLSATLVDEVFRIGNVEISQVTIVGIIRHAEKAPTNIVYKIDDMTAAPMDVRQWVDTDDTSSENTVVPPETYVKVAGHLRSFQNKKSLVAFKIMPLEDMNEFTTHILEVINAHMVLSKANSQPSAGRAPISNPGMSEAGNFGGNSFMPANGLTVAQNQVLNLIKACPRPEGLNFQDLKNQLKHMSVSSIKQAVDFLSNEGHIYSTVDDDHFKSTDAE
T1 sequence (P35244 whole entry, chain 3 of 3): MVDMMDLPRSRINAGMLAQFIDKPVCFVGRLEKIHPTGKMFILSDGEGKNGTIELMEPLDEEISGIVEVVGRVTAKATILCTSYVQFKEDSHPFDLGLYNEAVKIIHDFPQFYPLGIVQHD
The target in another series is CST (CTC1-STN1-TEN1) (human, UniProt Q2NKJ3;Q9H668;Q86WV5 1-1217;1-368;1-123).
CST (CTC1-STN1-TEN1), sequence (Q2NKJ3 whole entry, chain 1 of 3): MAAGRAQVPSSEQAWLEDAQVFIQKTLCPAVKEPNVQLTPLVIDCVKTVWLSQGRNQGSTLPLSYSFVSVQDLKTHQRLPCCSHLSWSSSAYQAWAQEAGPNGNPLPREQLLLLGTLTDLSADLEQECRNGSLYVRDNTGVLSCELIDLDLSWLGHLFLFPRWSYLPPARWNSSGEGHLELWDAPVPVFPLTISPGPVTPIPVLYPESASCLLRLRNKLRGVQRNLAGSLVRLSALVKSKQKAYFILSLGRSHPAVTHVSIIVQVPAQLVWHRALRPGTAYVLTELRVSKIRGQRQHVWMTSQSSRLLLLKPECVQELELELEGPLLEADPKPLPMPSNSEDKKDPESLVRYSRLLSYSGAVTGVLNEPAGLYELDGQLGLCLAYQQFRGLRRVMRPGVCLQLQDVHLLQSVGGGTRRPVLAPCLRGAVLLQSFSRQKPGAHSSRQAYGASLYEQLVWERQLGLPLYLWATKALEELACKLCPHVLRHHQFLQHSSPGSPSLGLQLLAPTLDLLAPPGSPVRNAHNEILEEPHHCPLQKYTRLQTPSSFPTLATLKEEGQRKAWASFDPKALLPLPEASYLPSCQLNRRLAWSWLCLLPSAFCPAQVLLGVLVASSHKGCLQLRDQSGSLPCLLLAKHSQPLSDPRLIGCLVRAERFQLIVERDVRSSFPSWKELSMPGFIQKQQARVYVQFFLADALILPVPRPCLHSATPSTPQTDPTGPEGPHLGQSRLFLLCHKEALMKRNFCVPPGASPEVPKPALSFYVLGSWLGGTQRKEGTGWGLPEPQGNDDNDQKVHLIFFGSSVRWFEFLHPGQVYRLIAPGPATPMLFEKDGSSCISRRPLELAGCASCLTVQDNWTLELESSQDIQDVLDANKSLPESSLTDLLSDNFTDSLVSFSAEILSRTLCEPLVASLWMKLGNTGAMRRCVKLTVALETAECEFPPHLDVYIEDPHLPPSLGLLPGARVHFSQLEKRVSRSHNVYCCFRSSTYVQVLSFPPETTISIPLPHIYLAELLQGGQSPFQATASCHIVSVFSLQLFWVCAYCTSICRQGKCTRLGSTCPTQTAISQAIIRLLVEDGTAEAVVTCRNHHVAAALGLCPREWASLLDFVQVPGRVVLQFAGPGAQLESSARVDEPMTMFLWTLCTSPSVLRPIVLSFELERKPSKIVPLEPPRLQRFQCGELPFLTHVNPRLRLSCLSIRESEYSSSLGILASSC
CST (CTC1-STN1-TEN1), sequence (Q9H668 whole entry, chain 2 of 3): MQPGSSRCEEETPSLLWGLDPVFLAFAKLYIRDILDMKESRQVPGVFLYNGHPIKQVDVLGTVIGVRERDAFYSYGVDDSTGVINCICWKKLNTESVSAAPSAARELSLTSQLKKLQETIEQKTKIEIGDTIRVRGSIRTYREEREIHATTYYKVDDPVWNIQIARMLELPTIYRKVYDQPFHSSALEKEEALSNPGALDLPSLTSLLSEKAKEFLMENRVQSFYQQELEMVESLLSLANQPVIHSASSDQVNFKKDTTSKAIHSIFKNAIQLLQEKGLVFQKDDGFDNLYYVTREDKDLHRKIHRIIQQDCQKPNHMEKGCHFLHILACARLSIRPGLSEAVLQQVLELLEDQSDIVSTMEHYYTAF
CST (CTC1-STN1-TEN1), sequence (Q86WV5 whole entry, chain 3 of 3): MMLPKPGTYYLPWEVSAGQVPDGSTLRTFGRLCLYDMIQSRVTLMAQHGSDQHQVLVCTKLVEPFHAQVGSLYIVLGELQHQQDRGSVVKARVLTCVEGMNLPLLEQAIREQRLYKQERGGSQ
Series [2] has as its target T1, RPA. The source holds these as a separate data set.

B1: Tel21 G4 (structured_DNA)
DNA: GGGTTAGGGTTAGGGTTAGGG
Molecule B1 registered a Kd in the series with RPA [1] of 5.5 nM.

B2: Tel21 (ssDNA)
DNA: GGGTTAGGGTTAGGGTTAGGG
With B2, the Kd with CST (CTC1-STN1-TEN1) was 1.3 nM; in the series with RPA [2], 1.9 nM.
